# Source: patent US20250277057A1 (OKLAHOMA MEDICAL RESEARCH FOUNDATION, published 2025)
# Biological target: T1, human activated protein C (human, UniProt P04070 43-197; P04070 212-461)
# T1 construct: In the plasma assays aPC is generated in human plasma with Protac; also called aPC; haPC
# Assay: KD ELISA ranking, direct antigen coating ELISA of Fab
row,Binder,Bmax
1,"R2-9C1 (Fab, V domains shown, Combinatorial mutant Fab of HAPC-14; also called combinatorial mutant No. 16) VH: EVQLVESGGGLVQPGGSLRLSCAASGFTFSFYYLNWVRQAPGKGLEWVGDIRLKKNNYEKHYAESVKGRFTISRDDSKSITYLQMNSLRAEDTAVYYCAREGDYFDYWGQGTTVTVSS VL: DIQLTQSPSSLSASVGDRVTITCRASESVDSFGATFMHWYQQKPGKAPKLLIYLASWLESGVPSRFSGSGSGTDFTLTISSLQPEDFATYYCVQNNEDPYTFGQGTKLEIK",1.09
2,"R2-25B7 (Fab, V domains shown, Combinatorial mutant Fab of HAPC-14; also called combinatorial mutant No. 5) VH: EVQLVESGGGLVQPGGSLRLSCAASGFTFSFYYLNWVRQAPGKGLEWVGDIRLKSNNYEKHYAESVKGRFTISRDDSKSITYLQMNSLRAEDTAVYYCAREGDYFDYWGQGTTVTVSS VL: DIQLTQSPSSLSASVGDRVTITCRASESVDSFGATFMHWYQQKPGKAPKLLIYLASWLPSGVPSRFSGSGSGTDFTLTISSLQPEDFATYYCVQNNEDPYTFGQGTKLEIK",1.07
3,"R2-22A10 (Fab, V domains shown, Combinatorial mutant Fab of HAPC-14; also called combinatorial mutant No. 9) VH: EVQLVESGGGLVQPGGSLRLSCAASGFTFSFYYLNWVRQAPGKGLEWVGDIRLKKNNYEKHYAESVKGRFTISRDDSKSITYLQMNSLRAEDTAVYYCAREGDYFDYWGQGTTVTVSS VL: DIQLTQSPSSLSASVGDRVTITCRASESVDSFGATFMHWYQQKPGKAPKLLIYLASRLESGVPSRFSGSGSGTDFTLTISSLQPEDFATYYCVQNNEDPYTFGQGTKLEIK",1.01
4,"R2-23H2 (Fab, V domains shown, Combinatorial mutant Fab of HAPC-14; also called combinatorial mutant No. 2) VH: EVQLVESGGGLVQPGGSLRLSCAASGFTFSFYYLNWVRQAPGKGLEWVGDIRLKKNNYEKHYAESVKGRFTISRDDSKSITYLQMNSLRAEDTAVYYCAREGDYFDYWGQGTTVTVSS VL: DIQLTQSPSSLSASVGDRVTITCRASESVDSFGATFMHWYQQKPGKAPKLLIYLASWLGSGVPSRFSGSGSGTDFTLTISSLQPEDFATYYCQQNNEDPYTFGQGTKLEIK",1.26
5,"R2-24F3 (Fab, V domains shown, Combinatorial mutant Fab of HAPC-14; Printed CDRs are the same as those of R2-32E6; also called combinatorial mutant No. 1) VH: EVQLVESGGGLVQPGGSLRLSCAASGFTFSFYYLNWVRQAPGKGLEWVGDIRLKKNNYEKHYAESVKGRFTISRDDSKSITYLQMNSLRAEDTAVYYCAREGDYFDYWGQGTTVTVSS VL: DIQLTQSPSSLSASVGDRVTITCRASESVDSFGATFMHWYQQKPGKAPKLLIYLASWLGSGVPSRFSGSGSGTDFTLTISSLQPEDFATYYCVQNNEDPYTFGQGTKLEIK",1.37
6,"R2-24D4 (Fab, V domains shown, Combinatorial mutant Fab of HAPC-14; also called combinatorial mutant No. 10) VH: EVQLVESGGGLVQPGGSLRLSCAASGFTFSFYYLNWVRQAPGKGLEWVGDIRLKKNNYEKHYAESVKGRFTISRDDSKSITYLQMNSLRAEDTAVYYCAREGDTFDYWGQGTTVTVSS VL: DIQLTQSPSSLSASVGDRVTITCRASESVDSFGATFMHWYQQKPGKAPKLLIYLASWLPSGVPSRFSGSGSGTDFTLTISSLQPEDFATYYCQQNNEDPYTFGQGTKLEIK",0.717
7,"R2-23E10 (Fab, V domains shown, Combinatorial mutant Fab of HAPC-14; also called combinatorial mutant No. 12) VH: EVQLVESGGGLVQPGGSLRLSCAASGFTFSFYYLNWVRQAPGKGLEWVGDIRLKSNNYEKHYAESVKGRFTISRDDSKSITYLQMNSLRAEDTAVYYCAREGDYFDYWGQGTTVTVSS VL: DIQLTQSPSSLSASVGDRVTITCRASESVDSFGATFMHWYQQKPGKAPKLLIYLASWLGSGVPSRFSGSGSGTDFTLTISSLQPEDFATYYCQQNNEDPYTFGQGTKLEIK",1.24
8,"R2-24H1 (Fab, V domains shown, Combinatorial mutant Fab of HAPC-14; also called combinatorial mutant No. 8) VH: EVQLVESGGGLVQPGGSLRLSCAASGFTFSFYYLNWVRQAPGKGLEWVGDIRLKSNNYEKHYAESVKGRFTISRDDSKSITYLQMNSLRAEDTAVYYCAREGDYFDYWGQGTTVTVSS VL: DIQLTQSPSSLSASVGDRVTITCRASESVDSFGATFMHWYQQKPGKAPKLLIYLASRLGSGVPSRFSGSGSGTDFTLTISSLQPEDFATYYCVQNNEDPYTFGQGTKLEIK",1.25
9,"R2-22B6 (Fab, V domains shown, Combinatorial mutant Fab of HAPC-14; also called combinatorial mutant No. 15) VH: EVQLVESGGGLVQPGGSLRLSCAASGFTFSFYYLNWVRQAPGKGLEWVGDIRLKSNNYEKHYAESVKGRFTISRDDSKSITYLQMNSLRAEDTAVYYCAREGDYFDYWGQGTTVTVSS VL: DIQLTQSPSSLSASVGDRVTITCRASESVDSFGATFMHWYQQKPGKAPKLLIYLASRLGSGVPSRFSGSGSGTDFTLTISSLQPEDFATYYCQQNNEDPYTFGQGTKLEIK",1.21

# Continued, values first:
row,Bmax,Binder
1,1.21,"R2-26E4 (Fab, V domains shown, Combinatorial mutant Fab of HAPC-14; also called combinatorial mutant No. 4) VH: EVQLVESGGGLVQPGGSLRLSCAASGFTFSFYYLNWVRQAPGKGLEWVGDIRLKKNNYEKHYAESVKGRFTISRDDSKSITYLQMNSLRAEDTAVYYCAREGDYFDYWGQGTTVTVSS VL: DIQLTQSPSSLSASVGDRVTITCRASESVDSFGATFMHWYQQKPGKAPKLLIYLASRLGSGVPSRFSGSGSGTDFTLTISSLQPEDFATYYCVQNNEDPYTFGQGTKLEIK"
2,0.617,"R2-30F7 (Fab, V domains shown, Combinatorial mutant Fab of HAPC-14; also called combinatorial mutant No. 11) VH: EVQLVESGGGLVQPGGSLRLSCAASGFTFSFYYLNWVRQAPGKGLEWVGDIRLKSNNYEKHYAESVKGRFTISRDDSKSITYLQMNSLRAEDTAVYYCAREGDYFDYWGQGTTVTVSS VL: DIQLTQSPSSLSASVGDRVTITCRASESVDSFGATFMHWYQQKPGKAPKLLIYLASRLPSGVPSRFSGSGSGTDFTLTISSLQPEDFATYYCVQNNEDPYTFGQGTKLEIK"
3,1.04,"R2-25G5 (Fab, V domains shown, Combinatorial mutant Fab of HAPC-14; also called combinatorial mutant No. 3) VH: EVQLVESGGGLVQPGGSLRLSCAASGFTFSFYYLNWVRQAPGKGLEWVGDIRLKKNNYEKHYAESVKGRFTISRDDSKSITYLQMNSLRAEDTAVYYCAREGDYFDYWGQGTTVTVSS VL: DIQLTQSPSSLSASVGDRVTITCRASESVDSFGATFMHWYQQKPGKAPKLLIYLASWLPSGVPSRFSGSGSGTDFTLTISSLQPEDFATYYCVQNNEDPYTFGQGTKLEIK"
4,0.96,"R2-29D9 (Fab, V domains shown, Combinatorial mutant Fab of HAPC-14; also called combinatorial mutant No. 7) VH: EVQLVESGGGLVQPGGSLRLSCAASGFTFSFYYLNWVRQAPGKGLEWVGDIRLKKNNYEKHYAESVKGRFTISRDDSKSITYLQMNSLRAEDTAVYYCAREGDTFDYWGQGTTVTVSS VL: DIQLTQSPSSLSASVGDRVTITCRASESVDSFGATFMHWYQQKPGKAPKLLIYLASRLPSGVPSRFSGSGSGTDFTLTISSLQPEDFATYYCVQNNEDPYTFGQGTKLEIK"
5,1.41,"R2-32E6 (Fab, V domains shown, Combinatorial mutant Fab of HAPC-14; Printed CDRs are the same as those of R2-24F3; also called combinatorial mutant No. 14) VH: EVQLVESGGGLVQPGGSLRLSCAASGFTFSFYYLNWVRQAPGKGLEWVGDIRLKKNNYEKHYAESVKGRFTISRDDSKSITYLQMNSLRAEDTAVYYCAREGDYFDYWGQGTTVTVSS VL: DIQLTQSPSSLSASVGDRVTITCRASESVDSFGATFMHWYQQKPGKAPKLLIYLASWLGSGVPSRFSGSGSGTDFTLTISSLQPEDFATYYCVQNNEDPYTFGQGTKLEIK"
6,0.715,"R2-27G7 (Fab, V domains shown, Combinatorial mutant Fab of HAPC-14; also called combinatorial mutant No. 6) VH: EVQLVESGGGLVQPGGSLRLSCAASGFTFSFYYLNWVRQAPGKGLEWVGDIRLKKNNYEKHYAESVKGRFTISRDDSKSITYLQMNSLRAEDTAVYYCAREGDYFDYWGQGTTVTVSS VL: DIQLTQSPSSLSASVGDRVTITCRASESVDSFGATFMHWYQQKPGKAPKLLIYLASRLGSGVPSRFSGSGSGTDFTLTISSLQPEDFATYYCQQNNEDPYTFGQGTKLEIK"
